Test results from the RNAGym collection of RNA variant scans (doi:10.1073/pnas.2313332121).

B1: TPR t1 (parent)
chain: GACCAAUCUGCCCUCAGAGCUCGAGAACAUCUUCGGAUGCAGAGGAGGCAGGCUUCGGUGGCGCGAUAGCGCCAACGUCCUCAACCUCCAAUGCAUCCCACCACAUGAUGAUGCCUGAAGAGCCUUGGUUUUUUG

Variants of: B1
Assay: polymerase ribozyme fitness, log enrichment relative to wild type (log ratio); higher = more active; in vitro selection for triplet polymerase activity
Outline: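 Mutant libraries were PCR-built and transcribed for each subunit of a heterodimeric triplet polymerase ribozyme and selected for one round in triplicate at −7 °C, frozen, before gel excision of extended constructs and streptavidin-bead capture. Input and output libraries were Illumina-sequenced, keeping genotypes with ≥10 input reads and ≥1 read per output. Fitness is a logarithmic ratio of genotype to wild-type enrichment, in base 2, using inverse-variance-weighted replicate averages.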

Variant | polymerase ribozyme fitness (log ratio)
G61U A84C | 0.447
U55C U87G G135U | -1.63
A16G A41U C72U U106C G120C | -1.7
U59A A111C G120A | -0.645
U14C C34A U87A | -4.01
A37U G48A | -0.338
G48A G61C A66U | -2.1
G19C G52A A119U | -3.63
C13U G42U G71U U87A G120C | -1.77
C12U G47U C85G A111C | -2.51
U21G C97G U112G | -5.7
U32C G36A A83C | -3.09
C62G C104U | -1.52
A74U A75U U81A G127U | -1.96
A6U C13G A74U C88U C97U G117C C124G U132A | -3.99
C4G C8U C72A U78A U87A | -2.03
C15A G69U C101A C123U G127A | -4.17
G45U A46C | -2.05
C15A A118G | -2.6
C34G C53U G61U C73U G113C C114G | -8.49
U9G G42C A103G C124A | -6.09
G58A U96A | -0.747
G44C G45U | -2.11
C12G G122A | -0.383

Variant | polymerase ribozyme fitness (log ratio)
C13U C20U G120C C123G G127A | -2.54
G60A C76U | -1
G77C U78G U106A | -0.0347
A6U A105C U116C | -6.02
U96G A111U | -4.9
C15U C115A | -1.57
A37U C94U G117A | -2.17
C11G A18U C40U C82U C99A U109G | -5.71
C76G G113U | -4.13
U7A A27U A50U A74C C101U | -4.66
G60U C70U C94U | -2.63
A29U A118U | -1.3
C15G C40A C76G G77C G117C | -0.354
U9G A37U G42A G45C A95G | -3.58
A74G G77U C98U C104A | -2.74
C8A C12U A43U G51U C56U U81C C85A C97A A111G | -6.23
C4U G36C G63A G69U G120A G127A | -0.365
U9G C62U A74U | -0.576
A66U C73A C85G | -2.04
C11A C89A A111U G122A | -5.04
A18U G35U G71A A108G C115U | -6.98
C13A G60A C102U A118C G120U | -2.89
G17U U96G C98A G113U | -6.9
G93A C114A A119U G122C | -3.4

Variant | polymerase ribozyme fitness (log ratio)
G48C C53A C79G C99A C124A | -7.85
G63U C82U | -1.76
G17U A83G | -2.64
A46C G128C | -3.42
C15U C56G | -2.76
G42A C70A | -4.1
U54C G71U C97G C123U | -4.02
A5U C12A U21G C49A C72G | -2.35
A18U C28U | -5.29
C70U C123G | 0.306
G19U G60A G110U | -6.37
C56A U109G | -4.29
U9G G23U A43U G71A G110C C124G U126G | -8.22
U21C C56U | 0.0213
C4A G10C C98U G117A A121U | -4.42
U32C A37U U38A G48U U96G | -1.88
C8A A26U A46C C56U | -2.74
A16U G47U G69C | -3.2
G10A A66G | -1.17
G17A C70U G120U | -2.58
C8G U21C G45U C49G | -0.918
U96C C114G | -2.45
A6U U112A | 0.759
G60U G110C C123U | -5.58

Variant | polymerase ribozyme fitness (log ratio)
G25A G71A U112C | -6.36
C40G G61A G120A | 0.253
C13U A43U U59G C72A C104U | -2.63
G57A G71U C124A G135A | 0.736
G48U C49G U96A | -1.45
U54C G57C C72G U112C | 0.604
G42C G44A G69C C94U C114A | -5.06
G48A U87C C101A A105U | -3.9
A6U C11U | 0.0672
U87A A105G | -2
C12G C101G G110U | -5.05
G39U G58C G71A G110C | -6.06
C40U C53U A121G | 1.58
G110C A111G | -5.74
U21A G23A C76G G113U | -7.66
G42A G117C A119U | -3.55
A24G C49U G60U U129A | -3.61
U7G C56U | 0.612
C85G C102U G113U G117A G120C | -5.52
C28G A95U G110C A111C U133A | -1.6
C8G G44U G61A U78A C82G C115A U130A | 0.635
A27G A83G G93A | -3
G51U C72U U106A | -3.68
A29U G39U A74U A91U U132A | -4.44

Variant | polymerase ribozyme fitness (log ratio)
U7A U9C U78A G110U | -1.82
G36C A66C U125G | -2.72
A18U C88A | -3.06
C56U G69U | -1.78
U87A C124A | 1.83
C56U G77A C124U | 1.2
A50C G63U U81A U129A | -2.04
A16U G113A C123U | -4.77
G69C U87A | -1.98
G17C C20G G47C C72U G113A A119C | -7.02
U55C U59A C88U | -0.406
C28U C101A U106A | -1.04
A37U A50C C70A C124G | -1.17
G44C A83G A111C | -2.73
C40U A43U | -1.09
C34U A43G G63A G65U C124A | -6.99
G45U C56U C70U A75U | -2.3
U59G C88U | 0.0468
G39A G57U G71U U78G | -1.84
G10A C11G A27U G60A U78G C82A G93A A105G U109G | -6.59
G60U G71C | -3.38
C8G G61A C94U C99G G117C | -7.13
A16C G44U G69U U125G | -2.18
A84U G113A U132C G135A | -1.31

Variant | polymerase ribozyme fitness (log ratio)
C56G C62U A105U U129C | -3.68
C13U G36C A43U U112G G127U G128A | -5.23
A66C C72G C115A | -1.65
G61A C70U | -0.854
A46C U78A | -0.208
A103G U112C | -3.53
C8A C79U | 0.419
C8G C15G U21C G36A C82U U112A | -1.27
U7C C12G G44A U92A C102A C123U | -7.32
A27G G110U | -3.11
C12U C22U | -3.18
C62U C64U C102A U126G | -4.31
C12A A43C C53U | -2.86
A50C C70U U116G G117A | -4.23
C49G G60U C73U G128U | -3.07
A37U C49A U55C U112A | 0.525
A105C U130C | -1.55
C40G A46G C64U | -1.62
A103U A111G | -3.31
C70A U92A A95U A111C G113C | -6.14
U7A A29G G63U C98U | -3.67
A24G U78C C114U C115A | -5.31
C62A C85U A121G | 0.356
C11A C76A | -2.77

Variant | polymerase ribozyme fitness (log ratio)
C22G | -2.97
G10C A50G G69U C89A A121U | 0.925
U7A A66G C73G C124A | 0.101
A16G G57C C98U U112A G128C | -5.3
A18U C40A | -3.76
G61A G127U U134C | -0.718
C11U C49G A95C | -2.54
G71U G93A | -0.562
C11G C40A C53A | -0.596
G69C C88G | -2.63
G19A C76A C89G | -4.06
A37U G47A U116G | -3.09
G110C | -3.75
C28U A90U A111U | -5.21
G19C G60A G93A | -2.11
C11G C12U U21G A37U | -2.2
C11A C85U | -1.28
A6U A43C A50G G61A C115A U116C | -4.89
C3A C11G C56G C82U C115U G117A | -1.87
A27U C123A | -1.74
G52C U81A U130A | -2.3
G51U C115U | -4.89
A37C C53U U81G | -2.81
